# In IntAct's records for PubMed 29892012:
# B1: Genetic suppressor element 1 (Homo sapiens), Q14687 (parent)
# chain: MKGMSHEPKSPSLGMLSTATRTTATVNPLTPSPLNGALVPSGSPATSSALSAQAAPSSSFAAALRKLAKQAEEPRGSSLSSESSPVSSPATNHSSPASTPKRVPMGPIIVPPGGHSVPSTPPVVTIAPTKTVNGVWRSESRQDAGSRSSSGGRERLIVEPPLPQEKAGGPAIPSHLLSTPYPFGLSPSSVVQDSRFPPLNLQRPVHHVVPPSTVTEDYLRSFRPYHTTDDLRMSSLPPLGLDPATAAAYYHPSYLAPHPFPHPAFRMDDSYCLSALRSPFYPIPTPGSLPPLHPSAMHLHLSGVRYPPELSHSSLAALHSERMSGLSAERLQMDEELRREREREREREREREADREREKEREREREKEREQEKEREREKERERELERQREQRAREKELLAAKALEPSFLPVAELHGLRGHATEERGKPSEQLTPTRAEKLKDAGLQAPKPVQHPLHPVPTPHHTVPSLISNHGIFSLPSSSAATALLIQRTNEEEKWLARQRRLRQEKEDRQSQVSEFRQQVLEQHLDMGRPPVPAEAEHRPESTTRPGPNRHEPGGRDPPQHFGGPPPLISPKPQLHAAPTALWNPVSLMDNTLETRRAESHSLHSHPAAFEPSRQAAVPLVKVERVFCPEKAEEGPRKREPAPLDKYQPPPPPPREGGSLEHQPFLPGPGPFLAELEKSTQTILGQQRASLPQAATFGELSGPLKPGSPYRPPVPRAPDPAYIYDEFLQQRRRLVSKLDLEERRRREAQEKGYYYDLDDSYDESDEEEVRAHLRCVAEQPPLKLDTSSEKLEFLQLFGLTTQQQKEELVAQKRRKRRRMLRERSPSPPTIQSKRQTPSPRLALSTRYSPDEMNNSPNFEEKKKFLTIFNLTHISAEKRKDKERLVEMLRAMKQKALSAAVADSLTNSPRDSPAVSLSEPATQQASLDVEKPVGVAASLSDIPKAAEPGKLEQVRPQELSRVQELAPASGEKARLSEAPGGKKSLSMLHYIRGAAPKDIPVPLSHSTNGKSKPWEPFVAEEFAHQFHESVLQSTQKALQKHKGSVAVLSAEQNHKVDTSVHYNIPELQSSSRAPPPQHNGQQEPPTARKGPPTQELDRDSEEEEEEDDEDGEDEEEVPKRKWQGIEAVFEAYQEHIEEQNLERQVLQTQCRRLEARHYSLSLTAEQLSHSVAELRSQKQKMVSERERLQAELDHLRKCLALPAMHWPRGYLKGYPR
# partner: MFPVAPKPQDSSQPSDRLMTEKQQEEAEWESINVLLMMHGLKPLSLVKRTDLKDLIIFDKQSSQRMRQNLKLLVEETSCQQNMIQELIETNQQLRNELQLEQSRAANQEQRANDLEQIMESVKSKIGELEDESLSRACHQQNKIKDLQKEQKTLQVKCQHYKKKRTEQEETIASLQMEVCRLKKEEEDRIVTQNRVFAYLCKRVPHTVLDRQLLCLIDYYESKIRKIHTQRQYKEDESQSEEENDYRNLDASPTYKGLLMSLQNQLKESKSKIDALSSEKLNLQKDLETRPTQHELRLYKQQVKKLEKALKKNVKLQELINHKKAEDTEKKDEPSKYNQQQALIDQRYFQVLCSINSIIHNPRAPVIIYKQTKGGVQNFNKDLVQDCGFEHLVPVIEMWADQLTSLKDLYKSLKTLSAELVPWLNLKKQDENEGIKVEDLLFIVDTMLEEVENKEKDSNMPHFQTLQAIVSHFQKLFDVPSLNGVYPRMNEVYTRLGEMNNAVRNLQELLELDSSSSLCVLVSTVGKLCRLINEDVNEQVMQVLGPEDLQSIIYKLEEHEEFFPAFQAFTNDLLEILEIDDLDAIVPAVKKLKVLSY
# B2: Enhancer of mRNA-decapping protein 3 (Homo sapiens), Q96F86 (parent)
# chain: MATDWLGSIVSINCGDSLGVYQGRVSAVDQVSQTISLTRPFHNGVKCLVPEVTFRAGDITELKILEIPGPGDNQHFGDLHQTELGPSGAGCQVGINQNGTGKFVKKPASSSSAPQNIPKRTDVKSQDVAVSPQQQQCSKSYVDRHMESLSQSKSFRRRHNSWSSSSRHPNQATPKKSGLKNGQMKNKDDECFGDDIEEIPDTDFDFEGNLALFDKAAVFEEIDTYERRSGTRSRGIPNERPTRYRHDENILESEPIVYRRIIVPHNVSKEFCTDSGLVVPSISYELHKKLLSVAEKHGLTLERRLEMTGVCASQMALTLLGGPNRLNPKNVHQRPTVALLCGPHVKGAQGISCGRHLANHDVQVILFLPNFVKMLESITNELSLFSKTQGQQVSSLKDLPTSPVDLVINCLDCPENVFLRDQPWYKAAVAWANQNRAPVLSIDPPVHEVEQGIDAKWSLALGLPLPLGEHAGRIYLCDIGIPQQVFQEVGINYHSPFGCKFVIPLHSA
# partner: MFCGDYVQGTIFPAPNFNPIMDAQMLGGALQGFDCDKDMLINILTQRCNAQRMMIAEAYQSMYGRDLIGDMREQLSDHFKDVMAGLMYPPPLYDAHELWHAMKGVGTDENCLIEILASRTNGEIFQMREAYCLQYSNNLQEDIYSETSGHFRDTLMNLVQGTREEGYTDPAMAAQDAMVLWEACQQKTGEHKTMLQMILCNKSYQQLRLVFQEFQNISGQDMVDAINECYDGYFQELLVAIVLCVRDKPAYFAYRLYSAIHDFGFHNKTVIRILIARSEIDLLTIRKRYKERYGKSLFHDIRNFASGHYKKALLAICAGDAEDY
# B3: CLK4-associating serine/arginine rich protein (Homo sapiens), Q8N2M8 (parent)
# chain: MWHEARKHERKLRGMMVDYKKRAERRREYYEKIKKDPAQFLQVHGRACKVHLDSAVALAAESPVNMMPWQGDTNNMIDRFDVRAHLDHIPDYTPPLLTTISPEQESDERKCNYERYRGLVQNDFAGISEEQCLYQIYIDELYGGLQRPSEDEKKKLAEKKASIGYTYEDSTVAEVEKAAEKPEEEESAAEEESNSDEDEVIPDIDVEVDVDELNQEQVADLNKQATTYGMADGDFVRMLRKDKEEAEAIKHAKALEEEKAMYSGRRSRRQRREFREKRLRGRKISPPSYARRDSPTYDPYKRSPSESSSESRSRSRSPTPGREEKITFITSFGGSDEEAAAAAAAAAASGVTTGKPPAPPQPGGPAPGRNASARRRSSSSSSSSSASRTSSSRSSSRSSSRSRRGGGYYRSGRHARSRSRSWSRSRSRSRRYSRSRSRGRRHSGGGSRDGHRYSRSPARRGGYGPRRRSRSRSHSGDRYRRGGRGLRHHSSSRSRSSWSLSPSRSRSLTRSRSHSPSPSQSRSRSRSRSQSPSPSPAREKLTRPAASPAVGEKLKKTEPAAGKETGAAKPKLTPQEKLKLRMQKALNRQFKADKKAAQEKMIQQEHERQEREDELRAMARKIRMKERERREKEREEWERQYSRQSRSPSPRYSREYSSSRRRSRSRSRSPHYRH
# partner: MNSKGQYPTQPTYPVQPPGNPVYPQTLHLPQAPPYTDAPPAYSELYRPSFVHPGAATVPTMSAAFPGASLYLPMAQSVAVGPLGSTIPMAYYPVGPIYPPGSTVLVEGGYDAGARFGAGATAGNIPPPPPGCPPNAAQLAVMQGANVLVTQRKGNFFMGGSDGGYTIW
# B4: Chaperone Ric-8A (Homo sapiens), Q9NPQ8 (parent)
# chain: MEPRAVAEAVETGEEDVIMEALRSYNQEHSQSFTFDDAQQEDRKRLAELLVSVLEQGLPPSHRVIWLQSVRILSRDRNCLDPFTSRQSLQALACYADISVSEGSVPESADMDVVLESLKCLCNLVLSSPVAQMLAAEARLVVKLTERVGLYRERSFPHDVQFFDLRLLFLLTALRTDVRQQLFQELKGVRLLTDTLELTLGVTPEGNPPPTLLPSQETERAMEILKVLFNITLDSIKGEVDEEDAALYRHLGTLLRHCVMIATAGDRTEEFHGHAVNLLGNLPLKCLDVLLTLEPHGDSTEFMGVNMDVIRALLIFLEKRLHKTHRLKESVAPVLSVLTECARMHRPARKFLKAQVLPPLRDVRTRPEVGEMLRNKLVRLMTHLDTDVKRVAAEFLFVLCSESVPRFIKYTGYGNAAGLLAARGLMAGGRPEGQYSEDEDTDTDEYKEAKASINPVTGRVEEKPPNPMEGMTEEQKEHEAMKLVTMFDKLSRNRVIQPMGMSPRGHLTSLQDAMCETMEQQLSSDPDSDPD
# partner: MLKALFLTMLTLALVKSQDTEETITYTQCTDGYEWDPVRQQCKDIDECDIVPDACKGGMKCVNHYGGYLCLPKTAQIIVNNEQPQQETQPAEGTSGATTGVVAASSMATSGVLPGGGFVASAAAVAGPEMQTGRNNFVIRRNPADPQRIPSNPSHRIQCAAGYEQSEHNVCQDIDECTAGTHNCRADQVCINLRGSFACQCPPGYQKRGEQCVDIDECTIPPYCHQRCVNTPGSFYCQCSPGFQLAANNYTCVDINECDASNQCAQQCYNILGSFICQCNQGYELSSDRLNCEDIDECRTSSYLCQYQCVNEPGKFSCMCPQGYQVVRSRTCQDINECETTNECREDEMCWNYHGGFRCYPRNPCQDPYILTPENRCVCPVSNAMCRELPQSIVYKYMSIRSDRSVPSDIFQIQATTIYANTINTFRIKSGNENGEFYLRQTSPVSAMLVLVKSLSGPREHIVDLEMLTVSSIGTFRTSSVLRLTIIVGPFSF
# Variants of: B1
# Details: with cep70_human CEP70, Q8NHQ1
row,Variant,effect of a mutation on the interaction
1,R503Q,with no effect

# Variants of: B1
# Details: with cep70_human CEP70, Q8NHQ1
# Remark: another data set of the same source
row,Variant,effect of a mutation on the interaction
1,E368K,with no effect

# Variants of: B2
# Details: with anx10_human ANXA10, Q9UJ72
row,Variant,effect of a mutation on the interaction
1,F213L,with no effect

# Variants of: B3
# Details: with dazp2_human DAZAP2, Q15038
row,Variant,effect of a mutation on the interaction
1,I163V,with no effect

# Variants of: B4
# Details: with fbln3_human EFEMP1, Q12805
row,Variant,effect of a mutation on the interaction
1,K319E,with no effect
